Results taken from patent US20100285016A1 (Genentech, published 2010).

T1: PRO34128-Fc fusion protein (human, UniProt Q6UXV0 19-351, limits assumed)
T1 construct: Used as conditioned medium; not shown: Fc portion
T1 sequence: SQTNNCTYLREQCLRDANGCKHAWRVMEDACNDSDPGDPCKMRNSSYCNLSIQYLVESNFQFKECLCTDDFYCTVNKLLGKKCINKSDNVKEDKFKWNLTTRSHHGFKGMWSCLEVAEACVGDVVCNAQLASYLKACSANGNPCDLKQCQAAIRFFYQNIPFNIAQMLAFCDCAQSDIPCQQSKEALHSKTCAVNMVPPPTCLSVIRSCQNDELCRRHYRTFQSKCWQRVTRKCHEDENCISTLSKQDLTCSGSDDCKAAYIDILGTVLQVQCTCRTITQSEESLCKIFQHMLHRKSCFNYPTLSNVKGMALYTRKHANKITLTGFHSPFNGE

B1: C-terminally FLAG-tagged NRTN (ligand, UniProt Q99748 96-197, looked up)
chain: ARLGARPCGLRELEVRVSELGLGYASDETVLFRYCAGACEAAARVYDLGLRRLRQRRRLRRERVRAQPCCRPTAYEDEVSFLDAHSRYHTVHELSARECACV
notes: Produced in 293T cells and used as conditioned medium; also called neurturin; not shown: C-terminal FLAG tag
B2: C-terminally FLAG-tagged ARTN (ligand, UniProt Q5T4W7 108-220, looked up)
chain: AGGPGSRARAAGARGCRLRSQLVPVRALGLGHRSDELVRFRFCSGSCRRARSPHDLSLASLLGAGALRPPPGSRPVSQPCCRPTRYEAVSFMDVNSTWRTVDRLSATACGCLG
notes: Produced in 293T cells and used as conditioned medium; not shown: C-terminal FLAG tag
B3: C-terminally FLAG-tagged PSPN (ligand, UniProt O60542 61-156, looked up)
chain: ALSGPCQLWSLTLSVAELGLGYASEEKVIFRYCAGSCPRGARTQHGLALARLQGQGRAHGGPCCRPTRYTDVAFLDDRHRWQRLPQLSAAACGCGG
notes: as for B2

molecular target: T1, PRO34128-Fc fusion protein; test: co-immunoprecipitation with protein-A beads from mixed conditioned media, anti-FLAG western blot
Description: GFR1-Fc, GFR2-Fc, GFR3-Fc, GFR4-Fc and PRO34128-Fc fusion proteins were produced by transfecting appropriate expression constructs using Fugene6™ (Roche Biosciences). C-terminally FLAG-tagged GDNF, NRTN, ARTN, PSPN and LEFTY-B were also produced in 293T cells by transfecting the appropriate expression construct in 293T cells using Fugene6™. All expression constructs are under CMV promoter control. The conditioned media were collected 48 hours post transfection and appropriate Fc fusion proteins (as indicated in the FIG. 6A) were mixed with the ligands and the interacting complexes were immunoprecipitated using protein-A beads (Sigma). Immunoprecipiated proteins were resolved on a SDS-PAGE and detected by western blotting. The co-precipitating FLAG-tagged proteins were detected using an anti-FLAG antibody (Sigma) at a final concentration of 1 μg/ml, HRP-conjugated anti-mouse antibody (ICN Biosciences) and a chemiluminescent substrate (Amersham).

Binding result, no binding:
B1, B2, B3
